Laboratory results reported in patent US7435549 (MICROMET, dated 2008).

Columns and labels:
[1] = target: T1, CD80-VD4.5VK8 scFv(VH/VL) construct with short (Gly4Ser1)1 linker (human, UniProt P33681 35-242); assay: flow cytometry on 17-1A-transfected CHO cells, anti-CD80 detection
T1 construct: extracellular domain; Tested as CHO culture supernatant; also called bifunctional CD80-VD4.5VK8-scFv-construct; pEF-DHFR+CTI+CD80+scFv VD4.5VK8
Experimental: FIG. 9.1: Binding studies of 17-1A specific bifunctional CD80-scFv-constructs on 17-1A transfected (filled lines) and untransfected CHO cells (broken lines) detected by flow cytometry. 5 ×10^5 cells were incubated in 50 μl undiluted cell-culture supernatant containing the corresponding bifunctional construct. Bound bifunctional CD80-scFv-constructs were detected by a monoclonal anti-CD80 antibody (Immunotech. Cat. No.: 1449) diluted 1:20 in 50 μl PBS. Incubation conditions were the same as described in FIG. 8.5. Bound CD80-antibody was finally detected by a fluorescein conjugated polyclonal Goat Anti-Mouse IgG+IgM (H+L) antibody diluted 1:100 in PBS. Incubation was again carried out for 30 minutes on ice. For the fixation of fluorescein-labeled cells 1% paraformaldehyd in PBS was used. As first negative control untransfected CHO was used. […] Cells were analysed by flow cytometry on a FACS scan (Becton Dickenson).
For this purpose adherent untransfected and 17-1A-transfected CHO-cells were detached using PBS containing 0,05% Trypsine, respectively. […] Bound bifunctional CD80-scFv-constructs were detected by a monoclonal anti-CD80 antibody (Immunotech. Cat. No: 1449) diluted 1:20 in 50 µl PBS. […] Bound CD80-antibody was finally detected by a fluorescein conjugated polyclonal Goat Anti-Mouse IgG+IgM (H+L) antibody diluted 1:100 in PBS. […]

[2] = target: T2, bifunctional CD80-anti-17-1A scFv construct, clone 4-7 (human, UniProt P33681 35-242); assay: flow cytometry on 17-1A-transfected CHO cells, undiluted supernatant, anti-CD80 detection
T2 construct: extracellular domain; CHO culture supernatant; also called pEFDHFR+CTI+CD80+scFv anti 17-1A 4-7; CD80-scFv-construct 4-7
Experimental: (§1) FIG. 9.1: Binding studies of 17-1A specific bifunctional CD80-scFv-constructs on 17-1A transfected (filled lines) and untransfected CHO cells (broken lines) detected by flow cytometry. 5 ×10^5 cells were incubated in 50 μl undiluted cell-culture supernatant containing the corresponding bifunctional construct. Bound bifunctional CD80-scFv-constructs were detected by a monoclonal anti-CD80 antibody (Immunotech. Cat. No.: 1449) diluted 1:20 in 50 μl PBS. Incubation conditions were the same as described in FIG. 8.5. Bound CD80-antibody was finally detected by a fluorescein conjugated polyclonal Goat Anti-Mouse IgG+IgM (H+L) antibody diluted 1:100 in PBS. Incubation was again carried out for 30 minutes on ice. For the fixation of fluorescein-labeled cells 1% paraformaldehyd in PBS was used. As first negative control untransfected CHO was used. The second negative control contained 17-1A-transfected cells that were incubated with PBS instead of bifunctional CD80-scFv-constructs. Cells were analysed by flow cytometry on a FACS scan (Becton Dickenson).
(§2) For this purpose adherent untransfected and 17-1A-transfected CHO-cells were detached using PBS containing 0,05% Trypsine, respectively. 5 ×10^5 cells were incubated for 30 minutes on ice in 50 µl culture supernatant containing the corresponding bifunctional construct undiluted (FIG. 9.1). Bound bifunctional CD80-scFv-constructs were detected by a monoclonal anti-CD80 antibody (Immunotech. Cat. No: 1449) diluted 1:20 in 50 µl PBS. Incubation conditions were the same as above. Bound CD80-antibody was finally detected by a fluorescein conjugated polyclonal Goat Anti-Mouse IgG+IgM (H+L) antibody diluted 1:100 in PBS. Incubation was again carried out for 30 minutes on ice. For the fixation of fluorescein-labeled cells 1% paraformaldehyd in PBS was used.

[3] = target: T3, bifunctional CD80-anti-17-1A scFv construct, clone 5-10 (human, UniProt P33681 35-242); assay: as above
T3 construct: extracellular domain; CHO culture supernatant; also called pEHDFR+CTI+CD80+scFv anti 17-1A 5-10; CD80-scFv-construct 5-10
Experimental: as §1, §2

[4] = target: T4, bifunctional CD80-anti-17-1A scFv construct, clone 3-5 (human, UniProt P33681 35-242); assay: as above
T4 construct: extracellular domain; CHO culture supernatant; also called pEF-DHFR+CTI+CD80+scFv 17-1A clone 3-5; CD80-scFv-construct 3-5
Experimental: as §1, §2

[5] = target: T5, bifunctional CD80-anti-17-1A scFv construct, clone 3-1 (human, UniProt P33681 35-242); assay: as above
T5 construct: extracellular domain; CHO culture supernatant; also called pEF-DHFR+CTI+CD80+scFv 17-1A clone 3-1; CD80-scFv-construct 3-1
Experimental: as §1, §2

[6] = target: T6, bifunctional CD80-anti-17-1A scFv construct, clone 5-3 (human, UniProt P33681 35-242); assay: as above
T6 construct: extracellular domain; CHO culture supernatant; also called pEFDHFR+CTI+CD80+scFv anti 17-1A 5-3; CD80-scFv-construct 5-3
Experimental: as §1, §2

[7] = target: T7, bifunctional CD80-anti-17-1A scFv construct, clone 5-13 (human, UniProt P33681 35-242); assay: as above
T7 construct: extracellular domain; CHO culture supernatant; also called pEF-DHFR+CTI+CD80+scFv 17-1A clone 5-13; CD80-scFv-construct 5-13
Experimental: as §1, §2

[8] = target: T8, bifunctional CD80-anti-17-1A scFv construct, clone 4-1 (human, UniProt P33681 35-242); assay: as above
T8 construct: extracellular domain; CHO culture supernatant; also called pEF-DHFR+CTI+CD80+scFv 17-1A clone 4-1; CD80-scFv-construct 4-1
Experimental: as §1, §2

[9] = target: T9, bifunctional CD80-anti-17-1A scFv construct, clone 4-4 (human, UniProt P33681 35-242); assay: as above
T9 construct: extracellular domain; CHO culture supernatant; also called pEF-DHFR+CTI+CD80+scFv 17-1A clone 4-4; CD80-scFv-construct 4-4
Experimental: as §1, §2

B1: transmembrane 17-1A antigen (complete amino acid sequence, GA733-2) on transfected CHO cells (other, UniProt P16422 24-314, looked up)
chain: QEECVCENYKLAVNCFVNNNRQCQCTSVGAQNTVICSKLAAKCLVMKAEMNGSKLGRRAKPEGALQNNDGLYDPDCDESGLFKAKQCNGTSMCWCVNTAGVRRTDKDTEITCSERVRTYWIIIELKHKAREKPYDSKSLRTALQKEITTRYQLDPKFITSILYENNVITIDLVQNSSQKTQNDVDIADVAYYFEKDVKGESLFHSKKMDLTVNGEQLDLDPGQTLIYYVDEKAPEFSMQGLKAGVIAVIVVVVIAVVAGIVVLVISRKKRMAKYEKAEIKEMGEMHRELNA
notes: whole, on cells; also called 17-1A-transfected CHO-cells
B1: no binding (tested: undiluted culture supernatant) [1]; binds [2]; binds [3]. B1: binds [4]; binds [5]; binds [6]. B1: binds [7]; binds [8]; binds [9].
